Experimental data taken from patent publication US20260008815A1, “CYCLIC PEPTIDE OR SALT THEREOF, AND USES THEREOF” (FUJIFILM Corporation, priority 2023, published 2026).
Numbered stars: 1 amine (or outer) side, 2 acyl side, 3 side chain; on linkers, the order of the positions; unused ones are H or OH. Bridge positions count the residues as written; N and C are the ends. Ends that are not written are not given here. acetyl = acetyl (haloacetyl before ring closure) on the side-chain amine, O=C(C[*:1])[*:2]; COCH2 = acetyl group that carries the bridge

Each substance was assayed against T1, Recombinant Human FGFR2 alpha (IIIc) Fc Chimera Protein (Homo sapiens, UniProt P21802) (assay: ELISA binding affinity of enzymatically synthesized peptide to FGFR). Conditions: ELISA luminescence signal at 10 nmol/L peptide, SEQ ID NO: 47 at 10 nmol/L standardized to 1; enzyme synthesis product.
T1 construct: Fc (chimera); purchased R&D systems 712-FR-050
T1 sequence (P21802 with tags, fused parts or gaps limits assumed): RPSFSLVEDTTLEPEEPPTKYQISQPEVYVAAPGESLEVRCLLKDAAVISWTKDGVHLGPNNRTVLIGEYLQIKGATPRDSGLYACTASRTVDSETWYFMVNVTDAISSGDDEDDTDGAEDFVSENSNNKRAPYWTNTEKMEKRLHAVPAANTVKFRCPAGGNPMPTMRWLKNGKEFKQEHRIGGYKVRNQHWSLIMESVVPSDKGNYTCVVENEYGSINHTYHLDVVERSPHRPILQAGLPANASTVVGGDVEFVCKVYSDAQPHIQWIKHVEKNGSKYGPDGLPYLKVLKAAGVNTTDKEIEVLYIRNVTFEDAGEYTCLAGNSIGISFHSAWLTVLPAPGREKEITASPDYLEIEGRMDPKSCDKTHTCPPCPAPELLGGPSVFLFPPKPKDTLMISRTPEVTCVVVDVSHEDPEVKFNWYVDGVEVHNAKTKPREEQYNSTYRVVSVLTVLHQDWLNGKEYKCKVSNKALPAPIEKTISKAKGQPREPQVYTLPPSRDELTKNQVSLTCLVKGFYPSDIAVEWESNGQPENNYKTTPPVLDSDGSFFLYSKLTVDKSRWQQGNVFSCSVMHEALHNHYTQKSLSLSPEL
Procedure: The binding affinity of the peptide to FGFR was evaluated using an ELISA method.
The binding affinity of the enzymatically synthesized peptide to FGFR was measured by evaluating the amount of the peptide bound to FGFR by ELISA.
First, 5 ng of Recombinant Human FGFR2 alpha (IIIc) Fc Chimera Protein (R&D systems, 712-FR-050) was immobilized in each well of a 96-well plate, and blocked with Pierce Protein-Free (PBS) Blocking Buffer (Thermo, 37572), and a peptide diluted with Can Get Signal Immunoreaction Enhancer Solution I (TOYOBO, NKB-101) was then added and reacted at room temperature for 3 hours. After washing with 0.05% Tween 20-containing phosphate buffered saline (PBS), an anti-Myc antibody (Cell Signaling, 14038S) diluted with Can Get Signal Immunoreaction Enhancer Solution II (TOYOBO, NKB-101) was added and reacted at room temperature for 2 hours. After washing with 0.05% Tween 20-containing PBS, SuperSignal ELISA Femto Substrate (Thermo, 37075) was added, and the luminescence amount was measured. The dose-response relationship was calculated from using the difference between the luminescence amount in the well in which FGFR was immobilized and the luminescence amount in the well in which FGFR was not immobilized, and the concentration of the peptide at the time of reaction, and the binding affinity to FGFR was evaluated according to the following evaluation criteria. The evaluation result preferably satisfies the evaluation criteria A, B, or C.
In a case where a value of a luminescence signal emitted by the cyclic peptide set forth in SEQ ID NO: 47 at a reaction concentration of 10 nmol/L is standardized to 1, evaluation criteria of the luminescence signal value emitted by the cyclic peptide at a reaction concentration of 10 nmol/L is as follows. • A: 0.7 or more • B: 0.5 or more and less than 0.7 • C: 0.1 or more and less than 0.5 • D: less than 0.1.
For “93 (QCPQNFINPVQWRYFQHWK(COCH2)N; thioether 2-19 (inferred)) [compound 93]”, the “Evaluation result of binding affinity to FGFR” value (shortened to “Evaluation result”) was “A (0.7 or more)”.
In the case of “383 (QCQLYYLYQYAYALK(COCH2)V; thioether 2-15 (inferred)) [compound 383]”, the “Evaluation result” value is reported as “C (0.1 or more and less than 0.5)”.
With “231 (YCEENYLDTEQYQYFIYFK(COCH2)Y; thioether 2-19 (inferred)) [compound 231]” the “Evaluation result” value was “A (0.7 or more)”.
For “389 (RCHHNFHHARQHGFFWHYK(COCH2)R; thioether 2-19 (inferred)) [compound 389]”, the “Evaluation result” value was “C (0.1 or more and less than 0.5)”.
For “35 (YRSRKYSSWYVALKR; also: cyclic peptide, ring not given here) [compound 35]”, the “Evaluation result” value was “D (less than 0.1)”.
In the case of “378 (QCPRQLYYLYLYLSK(COCH2)I; thioether 2-15 (inferred)) [compound 378]”, the “Evaluation result” value is reported as “C (0.1 or more and less than 0.5)”.
With “276 (YCEENYLDPEQYQYYIYFK(COCH2)Y; thioether 2-19) [compound 276]” the “Evaluation result” value was “B (0.5 or more and less than 0.7)”.
With “117 (LCRNYINPQQWRYFALYK(COCH2)N; thioether 2-18 (inferred)) [compound 117]” the “Evaluation result” value was “A (0.7 or more)”.
“373 (QCYNYQYIYQYIYK(COCH2)I; thioether 2-14) [compound 373]” was tested, and the “Evaluation result” value was “C (0.1 or more and less than 0.5)”.
In the case of “318 (YCEENYLDPEQYQYFIYFK(COCH2)D; thioether 2-19 (inferred)) [compound 318]”, the “Evaluation result” value is reported as “A (0.7 or more)”.
For “361 (QCYYLYWYLYK(COCH2)I; thioether 2-11) [compound 361]”, the “Evaluation result” value was “C (0.1 or more and less than 0.5)”.
In the case of “154 (YCIENYLDPEQYQYFIYFK(COCH2)Y; thioether 2-19 (inferred)) [compound 154]”, the “Evaluation result” value is reported as “A (0.7 or more)”.
With “113 (RCINYWSGQQFYFFQQYK(COCH2)F; thioether 2-18 (inferred)) [compound 113]” the “Evaluation result” value was “C (0.1 or more and less than 0.5)”.
With “301 (YCEENYLDPEQYQYFITFK(COCH2)Y; thioether 2-19 (inferred)) [compound 301]” the “Evaluation result” value was “A (0.7 or more)”.
For “43 (HCNANFVYQQQYLYLLQYK(COCH2)L; thioether 2-19 via acetyl) [compound 43]”, the “Evaluation result” value was “B (0.5 or more and less than 0.7)”.
For “55 (KCPANFINPVQWRYFQHYK(COCH2)N; thioether 2-19 (inferred)) [compound 55]”, the “Evaluation result” value was “A (0.7 or more)”.
“72 (PCPQNFINPVQWRYFQHYK(COCH2)N; thioether 2-19 (inferred)) [compound 72]” was tested, and the “Evaluation result” value was “A (0.7 or more)”.
In the case of “423 (WCFTEGIQSTVQLTYSYLYK(COCH2)L; thioether 2-20 via acetyl) [compound 423]”, the “Evaluation result” value is reported as “C (0.1 or more and less than 0.5)”.
In the case of “265 (YCEENYLDPEQYSYFIYFK(COCH2)Y; thioether 2-19) [compound 265]”, the “Evaluation result” value is reported as “A (0.7 or more)”.
For “176 (YCESNYLDPEQYQYFIYFK(COCH2)Y; thioether 2-19 (inferred)) [compound 176]”, the “Evaluation result” value was “A (0.7 or more)”.
For “333 (YCEENYLDPEQYQYFIAFK(COCH2)Y; thioether 2-19 (inferred)) [compound 333]”, the “Evaluation result” value was “A (0.7 or more)”.
In the case of “337 (YCEKNYLDPEQYQYFIYFK(COCH2)Y; thioether 2-19 (inferred)) [compound 337]”, the “Evaluation result” value is reported as “A (0.7 or more)”.
